From article PMC10605901, “Clinical Cases and the Molecular Profiling of a Novel Childhood Encephalopathy-Causing GNAO1 Mutation P170R” (Cells, 2023)

Biological target: T1, Gαo[P170R]^Gly92-GFP (human, UniProt P09471-1 1-354, P170R)
T1 construct: Pathogenic de novo variant found in two patients; also called Gαo[P170R]-GFP; P170R mutant; source: N2a cells, transfected, in lysate; not shown: GFP, internal (after residue 92), kept
Assay: co-IP; N2a cells co-transfected with Gαo-GFP constructs and mRFP-Gβ1/mRFP-Gγ3 (1:1:1) or HA-RGS19 (1:1); cleared lysates (20 mM Tris-HCl pH 8.0, 1% Triton X-100, 10% glycerol in PBS) incubated with GST-tagged anti-GFP nanobody, then Glutathione Sepharose 4B beads overnight at 4 °C; Western blot for GFP, mRFP and/or HA; quantification normalized to the precipitated Gαo-GFP
Conditions: partners not purified

T1 sequence (P09471 whole entry P170R): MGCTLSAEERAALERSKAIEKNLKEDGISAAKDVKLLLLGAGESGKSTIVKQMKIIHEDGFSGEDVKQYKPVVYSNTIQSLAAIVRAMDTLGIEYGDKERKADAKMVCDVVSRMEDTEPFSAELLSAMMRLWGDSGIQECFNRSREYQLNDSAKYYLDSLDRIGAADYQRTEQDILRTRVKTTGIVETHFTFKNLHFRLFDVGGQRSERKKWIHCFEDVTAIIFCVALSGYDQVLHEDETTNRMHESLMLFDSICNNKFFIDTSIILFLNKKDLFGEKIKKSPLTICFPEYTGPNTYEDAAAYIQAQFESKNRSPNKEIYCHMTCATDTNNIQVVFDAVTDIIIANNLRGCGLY

B1: 3xHA-RGS19 (natural protein, UniProt P49795 1-217, looked up)
chain: MPTPHEAEKQITGPEEADRPPSMSSHDTASPAAPSRNPCCLCWCCCCSCSWNQERRRAWQASRESKLQPLPSCEVCATPSPEEVQSWAQSFDKLMHSPAGRSVFRAFLRTEYSEENMLFWLACEELKAEANQHVVDEKARLIYEDYVSILSPKEVSLDSRVREGINKKMQEPSAHTFDDAQLQIYTLMHRDSYPRFLSSPTYRALLLQGPSQSSSEA
notes: RGS19 (regulator of G-protein signaling 19); also called 3×HA-RGS19; RGS19 (tagged with 3 × HA); source: N2a cells, transfected, in lysate
  fold reduction of co-precipitated RGS19 against wild-type Gαo-GFP: > 2 fold
